Assay [1] concerns mouse liver cell line (AML12). Kind of assay: qPCR of fibrosis-related genes in TGF-β1-treated liver cell line, rhKAI1 / pepKAI1 WT / pepKAI1 Mut. It is filed as cell-based. The following applies: 200 or 500 ng/mL for 2 hours, then TGF-β1 2 ng/ml 24 hours. The procedure: The effect of wild type KAI1 peptide (pepKAI1 WT) or mutant KAI1 peptide (pepKAI1 Mut) on fibrosis induced by treatment with TGF-β1 was confirmed in mouse liver cell line (AML12).
Specifically, the AML 12 cells were treated with recombinant human KAI1 protein (rhKAI1), wild type KAI1 peptide (pepKAI1 WT), and mutant KAI1 peptide (pepKAI1 Mut) at a concentration of 200 ng/mL or 500 ng/mL, respectively, and reacted for 2 hours. Thereafter, the cells were treated with TGF-β1 at a concentration of 2 ng/ml and cultured for an additional 24 hours, and then the cells were collected. RNA from the collected cells was extracted with Trizol, cDNA was synthesized, and then changes in expression of fibrosis-related genes (α-SMA, Col1a1, TIMP1, Vimentin, TGF-β, and fibronectin) were confirmed by qPCR analysis.

Assay [2] relates to acute hepatic fibrosis model mice. Description: qPCR of fibrosis-related genes in liver tissue of CCl4 acute hepatic fibrosis animal model. Format: in vivo, mouse. To be noted: 4 μg KAI1 protein i.p. day 8, liver day 11, vs. CCl4. The procedure: (§1) Specifically, 7-week-old C57BL/6 male mice was prepared, and CCl4 was diluted in corn oil at a concentration of 1 mL/kg. In order to induce acute liver injury, the mice were injected intraperitoneally with the diluted CCl4 twice a week. As a control group, the mice were intraperitoneally injected with the same amount of the corn oil.
(§2) As a KAI1 protein, a polypeptide (Human CD82/KAI-1 Protein (His Tag), Sino Biological Inc.) comprising a KAI1 fragment comprising a polypeptide (extracellular domain, SEQ ID NO: 4) consisting of the 111st to 228th amino acid sequence from the N terminus in a polypeptide consisting of the amino acid sequence of SEQ ID NO: 1 was used. On the 8th day after the start of the experiment, 4 μg of KAI1 protein was injected intraperitoneally per mouse, and on the 11th day, the mice were sacrificed and liver tissue was extracted.
RNA was obtained from the liver tissue extracted in Example 2.1. The RNA from the liver tissue was obtained using Favorgen® Trizol according to the manufacturer's instructions. The RNA was reverse transcribed into cDNA using a cDNA synthesis kit (Bioneer corp.). Thereafter, real-time PCR (qPCR) was performed to confirm changes in the expression levels of fibrosis-related genes Col1a1 (collagen type 1), fibronectin, and TGFβ1 (transforming growth factor-β1).

The subject of assay [3] is human hepatic stellate cell line (LX2). Description: Immunoblotting of fibrosis-related proteins in hepatic stellate cell line. Format: cell-based. The following applies: 200 or 500 ng/mL, 24 or 48 hours, vs. untreated group. As to the method: (§3) Specifically, the LX2 cell line was treated with recombinant human KAI1 protein (rhKAI1) at a concentration of 200 ng/mL or 500 ng/mL, respectively. Thereafter, the cells were cultured for 24 hours or 48 hours and collected to confirm cell proliferation and fibrosis-related gene expression in the cells. The cell proliferation was measured using MTS assay. RNA from the collected cells was extracted with Trizol, cDNA was synthesized, and then changes in expression of fibrosis-related genes (α-SMA, Col1a1, Vimentin, TGF-β, and GFAP) were confirmed by qPCR analysis.
The expression of fibrosis-related proteins was confirmed in human hepatic stellate cell line (LX2) treated with KAI1 protein in the same manner as in Example 4.1. At this time, anti-Vimentin antibody (sc-5565, Santa Cruz Biotech.), anti-Col1α1 antibody (NBP1-30054, Novus Biological), anti-α-SMA antibody (A5228, Sigma-Aldrich), anti-GFAP antibody (Z0334, Dako), and anti-GAPDH antibody (MCA4739, AbD Serptec) were used as primary antibodies, and HRP-conjugated anti-rabbit antibody (ADI-SAB-300-J, Enzo Life Sciences) and anti-mouse antibody (ADI-SAB-100-J) were used as secondary antibodies.

Assay [4] shares this test system. Kind of assay: qPCR of fibrosis-related genes in hepatic stellate cell line. It is filed as cell-based. To be noted: rhKAI1 200 or 500 ng/mL, 24 or 48 hours. The procedure:
(§4) It is known that fibrosis occurs due to excessive proliferation and activation of hepatic stellate cells. Therefore, changes in fibrosis-related gene expression by treatment with KAI1 protein were confirmed in human hepatic stellate cell line (LX2).
as §3

Assay [5] deals with acute hepatic fibrosis model mice. Kind of assay: H&E staining of liver tissue in CCl4 acute hepatic fibrosis animal model. It is filed as in vivo. The following applies: C57BL/6 male mice, CCl4 i.p. twice a week; 4 μg KAI1 protein i.p. per mouse on day 8, liver extracted day 11. As to the method:
as §1, §2
The liver tissue extracted in Example 2.1. was fixed in 10% (v/v) formalin solution. Thereafter, the liver tissue was embedded in paraffin and sectioned to a thickness of 4 μm to prepare tissue sections. After deparaffinization and superhydration, H&E (hematoxylin & eosin) staining was performed and observed under an optical microscope.

Assay [6] deals with liver cell line (AML12). Description: qPCR of fibrosis-related genes in TGF-β1-treated liver cell line, KAI1 protein. It is filed as cell-based, mouse. The following applies: 200 or 500 ng/mL for 2 hours, then TGF-β1 2 ng/mL 24 hours. As to the method:
In order to confirm the activity of KAI1protein to inhibit hepatic fibrosis at the cellular level, the liver cell line (AML12), which had hepatic fibrosis induced by treatment with TGF-β1, was treated with KAI1 protein to confirm changes in the expression of fibrosis-related genes.
Specifically, the AML 12 cells were cultured in DMEM/F12 medium containing 10% (v/v) fetal bovine serum (FBS), 1% (w/v) penicillin-streptomycin, 10 μg/mL insulin, 5.5 μg/mL transferrin, 5 ng/mL selenium, and 40 ng/ml dexamethasone. The AML12 cells were treated with KAI1 protein at a concentration of 200 ng/ml or 500 ng/mL, respectively, and reacted for 2 hours. Thereafter, the cells were treated with TGF-β1, a fibrosis-inducing cytokine, at a concentration of 2 ng/mL and cultured for an additional 24 hours, and then the cells were collected. RNA from the collected cells was extracted with Trizol, cDNA was synthesized, and then changes in expression of fibrosis-related genes (α-SMA, Col1a1, TIMP1, and MMP9) were confirmed by qPCR analysis.

Assay [7] has as its system human hepatic stellate cell line (LX2). Kind of assay: qPCR of senescence-related genes in hepatic stellate cell line. Format: cell-based. To be noted: 200 or 500 ng/mL, 24 or 48 hours, vs. control group. The procedure:
as §3
It is known that hepatic stellate cells can inhibit hepatic fibrosis by inducing senescence in the liver. Therefore, the expression of senescence-related genes (HGMA1, p16, p21 and p53, SIRT1) was confirmed in human hepatic stellate cell line (LX2) treated with KAI1 protein in the same manner as in Example 4.1.

The test system is the same in assay [8]. Description: Cell proliferation by MTS assay in hepatic stellate cell line. To be noted: rhKAI1 200 or 500 ng/mL, 24 or 48 hours. Format: cell-based. The procedure:
as §4, §3

For assay [9], the system named is mouse liver cell line (AML12). Kind of assay: Immunoblotting of ZO-1 (EMT) in TGF-β1-treated liver cell line. Format: cell-based. To be noted: 500 ng/ml for 2 hours, then TGF-β1 24 or 48 hours. The procedure:
The epithelial-mesenchymal transition (EMT) process has been proposed as one of the mechanisms of fibrosis. Therefore, the effect of KAI1 protein on the EMT process induced by TGF-1 in mouse liver cell line (AML12) was confirmed.
Specifically, the AML12 cells were treated with of KAI1 protein at a concentration of 500 ng/ml and reacted for 2 hours. Thereafter, the cells were treated with TGF-β1 and cultured for an additional 24 hours or 48 hours, and then the cells were collected. The collected cells were lysed in RIPA buffer containing protease inhibitors to extract proteins, and immunoblotting was performed by loading an equal amount of proteins. The protein expression level of ZO-1 was confirmed using an antibody of ZO-1 (anti-ZO antibody, 13663, Abcam), an epithelial biomarker during the EMT process. At this time, anti-tubulin antibody (T5168, Sigma-Aldrich) was used as an internal control, and HRP-conjugated anti-rabbit antibody (ADI-SAB-300-J, Enzo Life Sciences) was used as a secondary antibody.

For assay [10], the system named is human hepatic stellate cell line (LX2). Kind of assay: Immunoblotting of senescence-related proteins in hepatic stellate cell line. Format: cell-based. To be noted: 200 or 500 ng/mL, 24 or 48 hours, vs. untreated group. As to the method: as §3
The expression of senescence-related proteins was confirmed in human hepatic stellate cell line (LX2) treated with KAI1 protein in the same manner as in Example 4.1. At this time, anti-SIRT1 antibody (ab32441, Abcam), anti-p16 antibody (10883-1-ap, Protein tech.), and anti-GAPDH antibody (MCA4739, AbD Serptec) were used as primary antibodies, and HRP-conjugated anti-rabbit antibody (ADI-SAB-300-J, Enzo Life Sciences) and anti-mouse antibody (ADI-SAB-100-J) were used as secondary antibodies.

“pepKAI1 Mut: mutant peptide with both Y*C and EED substituted with alanine, NRPEVTAPASCEVKGAAANS (SEQ ID NO: 3) (Mutant KAI1 polypeptide)”: the “expression of fibrosis-related genes (α-SMA, Col1a1, TIMP1, Vimentin, TGF-β, fibronectin) increased by TGF-β1 (qPCR)” value in assay [1] is recorded as “not reduced”.
As for “pepKAI1 WT: 20 amino acid functional KAI1 peptide with Y*C and EED motifs, NRPEVTYPCSCEVKGEEDNS (SEQ ID NO: 2) (Wild type KAI1 polypeptide)”, the “expression of fibrosis-related genes (α-SMA, Col1a1, TIMP1, Vimentin, TGF-β, fibronectin) increased by TGF-β1 (qPCR)” value in assay [1] is “reduced”. For the same molecule, in [1] (comparison with rhKAI1), the “fibrosis-related gene expression compared to the group treated with rhKAI1 protein (qPCR)” value was “further reduced”.

B1: KAI1 protein: Human CD82/KAI-1 Protein (His Tag), Sino Biological; comprises extracellular domain, amino acids 111 to 228 of SEQ ID NO: 1 (SEQ ID NO: 4) (protein)
chain: GKLKQEMGGIVTELIRDYNSSREDSLQDAWDYVQAQVKCCGWVSFYNWTDNAELMNRPEVTYPCSCEVKGEEDNSLSVRKGFCEAPGNRTQSGNHPEDWPVYQEGCMEKVQAWLQENL
modifications: His tag; Extracellular domain of recombinant human KAI1 protein
On to B1, for which, in assay [2], the “gene expression of Col1a1 in liver tissue (qPCR)” value is on record as “reduced”, the “gene expression of TGF-β1 in liver tissue (qPCR)” value is “reduced” and the “gene expression of fibronectin in liver tissue (qPCR)” value is reported as “reduced”. In assay [3], the “protein expression of Col1α1 (immunoblotting)” value is listed as “reduced”, the “protein expression of GFAP (immunoblotting)” value is “increased”, the “protein expression of Vimentin (immunoblotting)” value is “reduced” and the “protein expression of α-SMA (immunoblotting)” value is recorded as “reduced”. Also, in [4], the “gene expression of Col1a1 (qPCR)” value is “significantly reduced”; the “gene expression of GFAP, marker gene for resting stellate cells (qPCR)” value is on record as “tendency to increase”; the “gene expression of TGF-β (qPCR)” value is “significantly reduced”; the “gene expression of Vimentin (qPCR)” value was “significantly reduced”. For the same molecule, the “gene expression of α-SMA (qPCR)” value in [4] is recorded as “significantly reduced”. Further, the “degree of cell damage and inflammatory cell infiltration (H&E staining of liver tissue)” value in assay [5] is given as “reduced”. Further, the “expression of fibrosis-related genes (α-SMA, Col1a1, TIMP1, MMP9) increased by TGF-β1 (qPCR)” value in [6] is listed as “reduced”. Moreover, in [7], the “expression of SIRT1, a senescence inhibition marker (qPCR)” value is “reduced”; the “expression of senescence marker gene HGMA1 (qPCR)” value is on record as “increased”; the “expression of senescence marker gene p16 (qPCR)” value is recorded as “increased”; the “expression of senescence marker gene p21 (qPCR)” value was “increased”. In addition, the “expression of senescence marker gene p53 (qPCR)” value in assay [7] is listed as “increased”. The “cell proliferation (MTS assay)” value in [8] is on record as “significantly reduced”. For the same molecule, the “expression of ZO-1 protein reduced by TGF-β1 (immunoblotting)” value in [9] was “recovered”. For the same molecule, in assay [10], the “expression of SIRT1, a senescence inhibition marker protein (immunoblotting)” value is “reduced” and the “expression of p16, a senescence marker protein (immunoblotting)” value is reported as “increased”.

(Values after patent US20240382559A1, “PHARMACEUTICAL COMPOSITION COMPRISING KAI1 POLYPEPTIDE FOR INHIBITION OF HEPATIC FIBROSIS AND USE THEREOF” (PUSAN NATIONAL UNIVERSITY INDUSTRY-UNIVERSITY COOPERATION …, priority 2021, published 2024).)
